# Measured values from patent US20090092595A1, “Suppression of sPLA2-integrin binding for treating an inflammatory condition” (REGENTS OF THE UNIVERSITY OF CALIFORNIA, priority 2007, published 2009).
# T1: integrin αvβ3 on β3-CHO cells (UniProt A0A9J7JSN3+P05106)
# T1 construct: expressed in transfected cells; host or cells: CHO
# T1 sequence (P05106 27-788): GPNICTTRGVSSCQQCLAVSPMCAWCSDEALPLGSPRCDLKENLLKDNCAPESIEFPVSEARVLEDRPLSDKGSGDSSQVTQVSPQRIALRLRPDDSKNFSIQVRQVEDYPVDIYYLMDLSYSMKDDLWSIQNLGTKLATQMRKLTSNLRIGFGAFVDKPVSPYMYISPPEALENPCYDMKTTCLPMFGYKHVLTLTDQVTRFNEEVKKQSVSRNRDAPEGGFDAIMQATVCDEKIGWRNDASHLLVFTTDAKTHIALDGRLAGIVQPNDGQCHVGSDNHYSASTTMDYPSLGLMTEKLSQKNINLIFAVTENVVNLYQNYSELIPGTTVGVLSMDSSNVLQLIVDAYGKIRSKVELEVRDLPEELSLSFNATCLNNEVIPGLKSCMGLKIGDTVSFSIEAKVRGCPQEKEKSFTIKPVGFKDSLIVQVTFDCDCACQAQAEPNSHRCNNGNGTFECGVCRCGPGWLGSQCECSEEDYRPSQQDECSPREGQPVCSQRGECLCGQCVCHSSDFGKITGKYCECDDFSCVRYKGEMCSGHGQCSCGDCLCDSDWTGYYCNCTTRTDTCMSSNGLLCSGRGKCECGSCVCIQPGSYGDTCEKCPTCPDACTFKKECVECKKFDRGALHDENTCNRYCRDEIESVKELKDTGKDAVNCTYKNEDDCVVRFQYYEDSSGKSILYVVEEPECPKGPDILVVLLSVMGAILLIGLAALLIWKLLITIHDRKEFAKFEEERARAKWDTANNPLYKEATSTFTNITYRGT
# T1 sequence (A0A9J7JSN3 31-1043): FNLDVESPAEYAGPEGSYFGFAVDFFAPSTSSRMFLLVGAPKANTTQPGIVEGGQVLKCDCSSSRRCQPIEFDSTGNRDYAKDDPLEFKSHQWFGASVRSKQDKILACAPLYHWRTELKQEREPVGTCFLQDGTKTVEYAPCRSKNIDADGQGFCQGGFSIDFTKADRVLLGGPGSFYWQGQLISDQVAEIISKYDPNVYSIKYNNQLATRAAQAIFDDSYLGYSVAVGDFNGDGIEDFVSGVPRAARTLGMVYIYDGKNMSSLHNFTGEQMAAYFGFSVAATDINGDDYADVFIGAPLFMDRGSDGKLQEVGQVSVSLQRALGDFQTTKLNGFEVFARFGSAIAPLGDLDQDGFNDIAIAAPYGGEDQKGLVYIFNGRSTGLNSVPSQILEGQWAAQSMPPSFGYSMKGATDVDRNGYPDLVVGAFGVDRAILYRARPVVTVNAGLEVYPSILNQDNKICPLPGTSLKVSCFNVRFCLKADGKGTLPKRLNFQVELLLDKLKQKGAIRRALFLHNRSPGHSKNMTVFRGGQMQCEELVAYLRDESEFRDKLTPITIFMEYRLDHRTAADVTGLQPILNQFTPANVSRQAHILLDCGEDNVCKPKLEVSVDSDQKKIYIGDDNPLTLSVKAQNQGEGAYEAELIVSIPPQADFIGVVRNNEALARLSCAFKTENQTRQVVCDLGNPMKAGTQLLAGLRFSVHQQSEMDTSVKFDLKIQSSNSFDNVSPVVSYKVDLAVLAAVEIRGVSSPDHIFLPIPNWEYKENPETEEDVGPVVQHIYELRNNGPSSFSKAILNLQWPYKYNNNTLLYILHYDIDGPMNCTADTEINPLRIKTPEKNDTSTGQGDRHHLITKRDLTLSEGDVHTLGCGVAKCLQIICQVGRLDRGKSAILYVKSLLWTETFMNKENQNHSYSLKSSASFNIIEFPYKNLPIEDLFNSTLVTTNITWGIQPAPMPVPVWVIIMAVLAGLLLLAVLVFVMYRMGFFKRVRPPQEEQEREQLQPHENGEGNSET
# Target: T1, integrin αvβ3 on β3-CHO cells
# Assay: Adhesion of cells expressing recombinant αvβ3 (β3-CHO, β3-745) to immobilized sPLA2-IIA
# Format: cell-based, human
# Details: compared with mock-transfected cells
# Excerpt: FIG. 1. sPLA2-IIA binding to integrin αvβ3. a) Cell adhesion to sPLA2-IIA in an αvβ3- and proteoglycans-dependent manner. Wells of a 96-well microtiter plate were coated with sPLA2-IIA at indicated coating concentrations. Remaining protein-binding sites were blocked with BSA. CHO cells expressing recombinant αvβ3 (β3-CHO), mock-transfected CHO cells, proteoglycans-deficient CHO cell variant (pgs745), expressing recombinant αvβ3 (β3-745), and mock-transfected pgs745 cells (10^5 cells per well in 100 μl Tyrodes-HEPES with 1 mM MgCl2) were added to the wells. After incubating for 1 h at 37° C., unbound cells were removed by gentle rinsing and bound cells were quantified using endogenous phosphatase activity (Prater, C. A. et al., J. Cell Biol., 112:1031-1040 (1991)). Data is shown as means+/−SEM of triplicate experiments. b) Effect of anti-(33 mAb 7E3 on adhesion of β3-CHO cells to immobilized sPLA2-IIA. […] Bound FITC (FL1) and PE (FL2) were quantified in flow cytometry. […] Bound αvβ3 was detected using peroxidase-conjugated anti-6His antibody. Bound peroxidase activity was measured. […]
molecule,measurement,value
"wt sPLA2-IIA: Secretory phospholipase A2 group IIA, wild type, recombinant from bacteria BL21, refolded (protein, left off: small tags and cut ends) NLVNFHRMIKLTTGKEAALSYGFYGCHCGVGGRGSPKDATDRCCVTHDCCYKRLEKRGCGTKFLSYKFSNSGSRITCAKQDSCRSQLCECDKAAATCFARNKTTYNKKYQYYSNKHCRGSTPRC",adhesion of β3-CHO and β3-745 cells to immobilized sPLA2-IIA,much higher level than mock-transfected CHO or 745 cells
